From the DeepSol protein solubility set come the findings set out here.

This series can be described thus: soluble on expression in E. coli; label from the status in PepcDB or PDB records.
In the case of “MAERGGDGGESERFNPGELRMAQQQALRFRGPAPPPNAVMRGPPPLMRPPPPFGMMRGPPPPPRPPFGRPPFDPNMPPMPPPGGIPPPMGPPHLQRPPFMPPPMSSMPPPPGMMFPPGMPPVTAPGTPALPPTEEIWVENKTPDGKVYYYNARTRESAWTKPDGVKVIQQSELTPMLAAQAQVQAQAQAQAQAQAQAQAQAQAQAQAQAQAQAQAQAQAQAQAQAQAQAQAQAQAQAQAQAQVQAQVQAQVQAQAVGASTPTTSSPAPAVSTSTSSSTPSSTTSTTTTATSVAQTVSTPTTQDQTPSSAVSVATPTVSVSTPAPTATPVQTVPQPHPQTLPPAVPHSVPQPTTAIPAFPPVMVPPFRVPLPGMPIPLPGVLPGMAPPIVPMIHPQVAIAASPATLAGATAVSEWTEYKTADGKTYYYNNRTLESTWEKPQELKEKEKLEEKIKEPIKEPSEEPLPMETEEEDPKEEPIKEIKEEPKEEEMTEEEKAAQKAKPVATAPIPGTPWCVVWTGDERVFFYNPTTRLSMWDRPDDLIGRADVDKIIQEPPHKKGMEELKKLRHPTPTMLSIQKWQFSMSAIKEEQELMEEINEDEPVKAKKRKRDDNKDIDSEKEAAMEAEIKAARERAIVPLEARMKQFKDMLLERGVSAFSTWEKELHKIVFDPRYLLLNPKERKQVFDQYVKTRAEEERREKKNKIMQAKEDFKKMMEEAKFNPRATFSEFAAKHAKDSRFKAIEKMKDREALFNEFVAAARKKEKEDSKTRGEKIKSDFFELLSNHHLDSQSRWSKVKDKVESDPRYKAVDSSSMREDLFKQYIEKIAKNLDSEKEKELERQARIEASLREREREVQKARSEQTKEIDREREQHKREEAIQNFKALLSDMVRSSDVSWSDTRRTLRKDHRWESGSLLEREEKEKLFNEHIEALTKKKREHFRQLLDETSAITLTSTWKEVKKIIKEDPRCIKFSSSDRKKQREFEEYIRDKYITAKADFRTLLKETKFITYRSKKLIQESDQHLKDVEKILQNDKRYLVLDCVPEERRKLIVAYVDDLDRRGPPPPPTASEPTRRSTK”, the “soluble on expression in E. coli” value is “soluble”.

As to “MGSDKIHHHHHHMNTTHAVPSITPNNDPWEAYDDIKMFGKPTLTNIEVTTTTLCNMRCEHCAVGYTLQTKDPDALPLDLLLRRLDEIPHLRAFSITGGEPMLSKKSVESYVVPLLRYAHERGARTQINSNLTLNIERYEKILPYLDVLHISHNYGSINDFTDIGFAVMERKPSIEQREALFHRMVENAKMLTQEGVFVSAETMINKRTLPHLEKIHEQIVSMGCQRHEVHPMYPSDFASALDVASLDEIRKGIHRLLDARDKKTWMLFGTLPFYPCSDQEEDLMLLKRLYGEPNVTVRNDPDGRSRLNVNLFDGNIIVTDFGDTPPLGNIMTTSFIEAYEKWQHSEISKELSCHCPMAECLGPNILVKNTYYRGVDFHKRKAVLHK”, the “soluble on expression in E. coli” value is recorded as “not soluble”.

Consider “GMQQPTASVVSYVAEYHKATETTMGRYKKVIEITGHDEVAAKLLEGLIDAGTRYFSKVVEMEHRMASARFRLDGEELRELTETLDRSRRLAHESLISSLHVFNRYIVKEYGEELKEAGIEGGIFPKPEANRDRIAIADWAGELLTGIYENRHR”, for which the “soluble on expression in E. coli” value is listed as “soluble”.

Consider “MAFAKDLKRRNVLQEAVYHRIKADFDLGAQAAVRTVKKVCDAYATFKANLRAGNYGLEGSKRRIKAESKPVRFRETSAQPFDDRMLTWNLDTKMVSVWTVAGRLKGIPFVCSPEAMRLLAQRKGESDLVMRDGMFFLLATIDIPEPEVSGPDGFLGVDLGIVNIATTSDGRIMSSRQVNRYRQRKRDLRGKLQKKRTKSAARVLKRQRRKEARYATQRNHIIARKLVHTAERTSRGIGLEDLTGIRQRVTAREDQRARLHSWAFAQLGAFVEYKAKRAGVAVVHVDPRNTSRQCSECWHTHRTNRVTRARFVCRSCGIVLHADHNGSRNIAHRADAAWQRGAANRPRTPAAALEHHHHHH”, for which the “soluble on expression in E. coli” value was “not soluble”.

As for “MGSDKIHHHHHHMLFCSMNAVRNWYILPVFFITSFISKGQNGALIPDTYDQFFQNYYLINPANTDTAGVILHMGHKSQLGVFRGVRQTYFDANFRIQSNRFNRAHSVGIQLFNNSEGDFFSKNRIYGRYAFDIHLSETYFLSAGIAVGAVSYAFKATQSSAGGSDLAYDGSTGLWVVGRKLKAGISIQQISQGKLSPLGQIFELRRQYNANVSYLFFINPDIQLTTHVWYKYQQHNMHDVQVAAIITLQNLVEFGGNYKYQKGVVLIGGLKDIHIGTSSLSLAMSYSTGILNYLAKGDNAVEVFLTYSR”, the “soluble on expression in E. coli” value is “not soluble”.

Turning to “AHHHHHHGSAGIEVQILEKKEDSIKFVLKGVHVSFANALRRTILGEVPTFAVDEVEFYENDSALFDEIIAHRLAMIPLTTPVDRFELDALELDDYTVTLSLEAEGPGIVYSGDLKSDDPDVKPVNPNIPIVKLAEGQRLVFNAYAKLGRGKDHAKWQPGFVYYKYYTIVHISKSIPEWKELKKLAKKRGLPVEETEEEVLVTTIKPFYIPKDFEEYEGKEIWEEIVPNTYIFTVETNGELPVEEIVSIALKILMRKADRFISELQKLTS”, the “soluble on expression in E. coli” value is reported as “soluble”.

On to “MMMMRAFIAENVRGIYAFDEDGKLVGKRYFTDKPEKILDGLLKGELVKDLEEFLNELREKGYDEFIFEHPELSRKAKELGFNATTEFPNLAGERLRSNPEEFLGENWFDDYYNVGVALTRMRIQEQSGARDKMVIQAIEALDDVDKVINLLVSRLREWYSLHFPELDEILPRHPQYVAFVKAIGHRDNVDEEKLRELGLSDEKIKKIIEAKEKTMGAWMDETDIAIVQHFAEEIDRLYKLRKELEDYIDKAMDDVAPNLKALVGAKLGARLISLAGGLKELAMLPSSTIQVLGAEKALFRHLRTGAKPPKHGVIYQYPAINRSPWWQRGKIARALAGKLAIAARVDYFSGEYIAEELKKELEARIKEIKEKYPRPPKRRKEERKGRKPWKEKKKKKKKKKGGRR”, for which the “soluble on expression in E. coli” value is reported as “soluble”.

As for “MSLENLNIENWPVDRLHHSEHATRRNEDAIPRMVDALRMFGFRIPLLVTGAGEVVDGHLRLKAALVMGMASVPVIVVDDMTPTQVRTFRLLINRSATWAEWDDEALRVELASLRDYGVDVTMTGFADAELDAFLQGVSLAGESDPDMVPPLPETPTSRPGDVWNMGGHRLLCGDSTSVEDVVRLMAGEQADMLWTDPPYNVDYSGKAGKIRNDKMSPEDFDAFLLRLLSRSYEALADGAAAYVAHSEAGGGTAFRKAFAHAGYKLASCLIWRKHQLVLGRGDYHWQHEPILYGWKPTGKHRWYGNRKHTTLLEHFAGQTVLPAGEGVWQVATGDAVLLIRGQDVTVEEVSTSILAVAKPARSELHPTMKPVALVERMVANSSPRGGLVLDPCGGSGTTLIACERMGRRCNTMELDPRFADVIVRRWEEVTGKTAVLEGGASFADVPLAREVAHEGHHHHHH”, the “soluble on expression in E. coli” value is given as “soluble”.

For the sequence “MGSDKIHHHHHHMRTVQAISGLVTSRFFGTSTRIMASGKTLNTSNINPNVIKMEYAVRGPIVIRAVELEKELATGAQKPFPNVIKANIGDAHAMGQKPITFIRQLLACIVNPEIMKTDKSIPSDVIEHANAFLGSCGGKSAGAYSQSTGVEIVRKHVAEYIKRRDGGIPCNSEDVCLSGGASESIRNVLKLFINHNNAKKVGVMIPIPQYPLYSATIEEFGLGQVGYYLSESSNWSMDEAELERSFNDHCKEYDIRVLCIINPGNPTGQALSRENIETIIKFAQKKNLFLMADEVYQDNVYAQGSQFHSFKKVLVEMGEPYNKMELASFHSVSKGYMGECGMRGGYVEFLNLDPEVYVLFKKMISAKLCSTVLGQAVIDAVVNPPKEGDASYALWKQEKDAVLASLKERATLVEKAYSSIDGISCNPVQGAMYAFPQITIPQRAVEKAQSLNQQPDFFYAMQLLETTGICIVPGSGFGQKDGTYHFRTTILPQPELFKDMLSRFTDFHQKFLAEYKRLYCHFHLTNNRTSDSFWHTLIDGFPKYKVFVQNRRSTQCAFHSIQLSRF”, the “soluble on expression in E. coli” value was “not soluble”.

For the sequence “MPVAKDNQFWDALMENKVAKKLIKKHKCKAKCENIDDLANRYEVSKQEVEKVFKIFQLMDDDGSGTISSSEVAKMLNELGIDVSPKVVQAVMRSSDVSGDGQIDFEEFLAAVTSKIKLSTVKADVQLMLSKIDNNPEKVVSWGIEHLMIIFCEEPLKSCYYRLALTAGCTIICGYLWF”, the “soluble on expression in E. coli” value was “not soluble”.

Turning to “MSLSDQPVLFSRAAASCRLTLNREDKCHAINEEMIESLDHYLNEIENDTALRLVELTATGDKFFCAGGDIKSWSAYSPLDMGRKWIKRGNDVFNRLRNLPQLTVANLNGHTIGGGIELALCCDIRIARPHAKFSNPEVMLGMVPGWMGIERVLNQVGPVVGRQMLMLGKRLTAQEAQAANLIDEVVEKEQVESWMANQLAQLEKCGPVALAHIKQLILALENKHADYSHQLLAGLMSATQDCQQATHAFAEKAGVSFHNQEGHHHHHH”, the “soluble on expression in E. coli” value is listed as “soluble”.

With “MIKDPRPLNDKAFIQQCIRQLCEFLTENGYAHNVSMKSLQAPSVKDFLKIFTFLYGFLCPSYELPDTKFEEEVPRIFKDLGYPFALSKSSMYTVGAPHTWPHIVAALVWLIDCIKIHTAMKESSPLFDDGQPWGEETEDGIMHNKLFLDYTIKCYESFMSGADSFDEMNAELQSKLKDLFNVDAFKLESLEAKNRALNEQIARLEQERSTANKANAERLKRLQKSADLYKDRLGLEIRKIYGEKLQFIFTNIDPKNPESPFMFSLHLNEARDYEVSDSAPHLEGLAEFQENVRKTNNFSAFLANVRKAFTATVYQ”, the “soluble on expression in E. coli” value is listed as “soluble”.

With “MGSDKIHHHHHHMFGPGGTQIPNPLRLKRPEGELVWAHATTQERLLGLCDVGCRLKMMRPDLSVMLTWEEDMRPAKLPEGCDIPLGPLTVEQPNDIRNFLDNWSPDVCVWAGGRLRRLLMRHMREREMPALLCDIDADELPSRASRWLPDQRHRLLNGFAAILVPGTEVSERLKRAGVAPERIHPAGRLFQSSTPPSCNDDELAQMQKQFASRPLWLAAHVSLSELPAVLKAHRGALRLLHRLLLVLTVDTFEDLDAARSLLRKEGLSFADWDMGEDPEDHTQVAIGLTENLGLWYRLCPISFLGNSLIRGAQGTNPLDAAALGSAILHGPGVVAHAQAYQRLAALDAAERIHGEEELADAVFRLSSPDRAAEMALAGWQVVTEGAVMTDTLLERIQDLLDQSELSHAPA”, the “soluble on expression in E. coli” value is recorded as “not soluble”.

On to “VNSVQIKNATAIVTGASSGIGLAFASLLAQKGYNLLLIARNINKLNDLAKTLSTQYDTQCNVLSIDLSEENASKKVLEYIITNNLNISVLINNAGFSGNYKFLEADWSQLSKELNVMSIAVTELCYLIAPLMEKNSWGRIINVSSGAAYLPPTQSLLYTGLKSYVLNFSQSLDMELKPKGINVTALCPGFTRSEFHNTMGTNKQVSKVPNFLWQA”, for which the “soluble on expression in E. coli” value is on record as “not soluble”.

Regarding “MGSDKIHHHHHHMPSWFTNVQLGFDMATSLTIVGAAVTWVIREKKQAEAEKVRGINQQVRSTSLKKVQDVLFEMEDKFSVLINETQTYENMIDNRVRKVNDQLDFSRLNLAIKRDDQFLIKAIDRLQAIREELGQFYELIQVRRYSLIPLLDAIEEGDKYIGVFQQNIDEVGDAYNQVTSGNVSLLKELEAVISMLNKQFGDELVDVSDEVKKELFQKISTDETFMKPIQSIIYDEDYFYWVQRFVPAGREDDYLEKVVRPSKIEDKELCSEVMVHFILALIGKNHELISQVLRTASGSVMKARIECKDILISLSAISHKLVMDNNGETLEKVIAKYESEEYFGRNVTIR”, the “soluble on expression in E. coli” value is listed as “not soluble”.

Regarding “MSNSVTNFEMSSVLPGKKPCQGKNNESQVVQTTPIKKHSVTFKNQSSLGVIDHYARLTNKSHSSVIAEVVDLAIPILEKCNRHNWSINEIKNDLLKFSIKESINRSRGKTEVTLEEYCSLIWKTNIMSPLKIPIADYFQLNANDEFMGKDEKTVIRERLSSLRENYDMEKAIYIYNQRHFDVKHQSVSGYSNIILIHRTTFEGYYFDAGQALLLSTSQLIIFGINEVLRRKGIVMPYPVVCWIDIYHVNEMVVMLPVLRKTDVSNRVNVPDDIIINPYSQESRT”, the “soluble on expression in E. coli” value is “soluble”.
